# Assay results published in publication PMC7972811 (Cell Reports, 2021).
# Where two headings read alike, the source gives them in different places.
# Key:
# [1] = target: T1, SARS-CoV-2 spike S2P (ectodomain of the SARS-CoV-2 S trimer) (SARS-CoV-2, ancestral (P0DTC2 sequence), stabilised); test: cell-based or functional assay
# [2] = target: T1, SARS-CoV-2 spike S2P (ectodomain of the …); test: SPR
# [3] = target: T1, SARS-CoV-2 spike S2P (ectodomain of the …); test: cryo-EM structure
# [4] = target: T1, SARS-CoV-2 spike S2P (ectodomain of the …); test: cryo-EM structure; remark: listed apart in the source
# [5] = target: T1, SARS-CoV-2 spike S2P (ectodomain of the …); test: cryo-EM structure; remark: listed apart in the source
binder,measurement,setting,value
"2-4 IgG with the somatic hypermutation A60T (heavy chain) reverted to germline (antibody, V domains shown) VH: not shown VL: QSALTQPPSASGSPGQSVTISCTGTSSDVGGYNYVSWYQQHPGKAPKLMIYEVSKRPSGVPDRFSGSKSGNTASLTVSGLQAEDEADYYCSSYAGSNNLVFGGGTKLTVL","pseudovirus neutralization, fold reduction against 2-4 IgG",[1],~9 fold
same,fold reduction of binding affinity against 2-4 IgG,[2],~6 fold
"H4 Fab (Fab, V domains shown) VH: not shown VL: DIQMTQSPLSLPVTPGEPASISCRSSQSLLDSDDGNTYLDWYLQKPGQSPQLLIYTLSYRASGVPDRFSGSGSGTDFTLKISRVEAEDVGVYYCMQRIEFPLTFGGGTKVEIK",stoichiometry N,[3],1 Fab per spike trimer
"2-43 IgG with the paratope somatic hypermutation S76T (heavy chain) reverted to germline (antibody, V domains shown) VH: not shown VL: QSALTQPASVSGSPGQSITISCTGTSSDVGGYNYVSWYQQHPGKAPKLMIYDVSKRPSGVSNRFSGSKSGNTASLTISGLQAEDEGDYYCSSYTSSSTWVFGGGTKLTVL","pseudovirus neutralization potency, fold reduction against 2-43 IgG",[1],~5 fold
same,fold reduction of IgG-apparent binding affinity against 2-43 IgG,[2],~6 fold
"2-43 Fab (Fab, V domains shown) VH: not shown VL: QSALTQPASVSGSPGQSITISCTGTSSDVGGYNYVSWYQQHPGKAPKLMIYDVSKRPSGVSNRFSGSKSGNTASLTISGLQAEDEGDYYCSSYTSSSTWVFGGGTKLTVL","neutralization potency of the Fab, fold less than its IgG form",[1],~140 fold
same,stoichiometry N,[4],3 Fab per spike trimer
"2-15 Fab (Fab, V domains shown) VH: QVQLVQSGAEVKKPGASVRVSCKASGYTFTGYYMHWVRQAPGQGLEWMGWINPISDGTNYAQKFQGWVTMTRDTSISTVYMELSRLRSDDTAVYYCARGGSRCSGGNCYGWAYDAFDIWGQGTMITVSS VL: QSALTQPASVSGSPGQSITISCTGTSSDVGGYNFVSWYQQHPGKAPKLMIYDVSKRPSGVSNRFSGSKSGNTASLTISGLQAEDEADCYCSSYTSSSTFVFGTGTKVTVL","neutralization potency of the Fab, fold less than its IgG form",[1],~95 fold
same,stoichiometry N,[5],1 Fab per spike trimer
"2-15 IgG with the paratope somatic hypermutation N53I (heavy chain) reverted to germline (antibody, V domains shown) VH: QVQLVQSGAEVKKPGASVRVSCKASGYTFTGYYMHWVRQAPGQGLEWMGWINPNSDGTNYAQKFQGWVTMTRDTSISTVYMELSRLRSDDTAVYYCARGGSRCSGGNCYGWAYDAFDIWGQGTMITVSS VL: QSALTQPASVSGSPGQSITISCTGTSSDVGGYNFVSWYQQHPGKAPKLMIYDVSKRPSGVSNRFSGSKSGNTASLTISGLQAEDEADCYCSSYTSSSTFVFGTGTKVTVL","pseudovirus neutralization potency, fold reduction against 2-15 IgG",[1],217 fold
same,fold reduction of binding affinity against 2-15 IgG,[2],56 fold
